Results on one protein are retold here after patent publication US9422541.

The target of the data set is T1, Recombinant C5a produced as an N-term His-tagged fusion (HT-C5a).
T1 chain: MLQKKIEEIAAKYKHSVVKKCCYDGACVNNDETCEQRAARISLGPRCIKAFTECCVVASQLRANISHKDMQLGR

B1: ScpA, bacterial C5a protease from Streptococcus pyogenes (protein)
chain: DANDLAPQAPAKTADTPATSKATIRDLNDPSQVKTLQEKAGKGAGTVVAVIDAGFDKNHEAWRLTDKTKARYQSKEDLEKAKKEHGITYGEWVNDKVAYYHDYSKDGKTAVDQEHGTHVSGILSGNAPSETKEPYRLEGAMPEAQLLLMRVEIVNGLADYARNYAQAIRDAVNLGAKVINMSFGNAALAYANLPDETKKAFDYAKSKGVSIVTSAGNDSSFGGKTRLPLADHPDYGVVGTPAAADSTLTVASYSPDKQLTETAMVKTDDQQDKEMPVLSTNRFEPNKAYDYAYANRGMKEDDFKDVKGKIALIERGDIDFKDKVANAKKAGAVGVLIYDNQDKGFPIELPNVDQMPAAFISRKDGLLLKDNPQKTITFNATPKVLPTASGTKLSRFSSWGLTADGNIKPDIAAPGQDILSSVANNKYAKLSGTSMSAPLVAGIMGLLQKQYETQYPDMTPSERLDLAKKVLMSSATALYDEDEKAYFSPRQQGAGAVDAKKASAATMYVTDKDNTSSKVHLNNVSDKFEVTVTVHNKSDKPQELYYQATVQTDKVDGKHFALAPKVLYEASWQKITIPANSSKQVTVPIDASRFSKDLLAQMKNGYFLEGFVRFKQDPTKEELMSIPYIGFRGDFGNLSAVEKPIYDSKDGSSYYHEANSDAKDQLDGDGLQFYALKNNFTALTTESNPWTIIKAVKEGVENIEDIESSEITETIFAGTFAKQDDDSHYYIHRHANGEPYAAISPNGDGNRDYVQFQGTFLRNAKNLVAEVLDKEGNVVWTSEVTEQVVKNYNNDLASTLGSTRFEKTRWDGKDKDGKVVANGTYTYRVRYTPISSGAKEQHTDFDVIVDNTTPEVATSATFSTEDRRLTLASKPKTSQPVYRERIAYTYMDEDLPTTEYISPNEDGTFTLPEEAETMEGATVPLKMSDFTYVVEDMAGNITYTPVTKLLEGHS
Consider B1, for which the “C5a-ase activity (SDS-PAGE of C5a treated with ScpA; 42 nM ScpA with 37 µM HT-C5a, 30 min at 20° C.)” value is on record as “the ScpA cleaved C5a at a single site” and the “mass loss of cleaved HT-C5a by MALDI-TOF MS” value is “a loss of 830 Da, consistent with the removal of seven residues from the C terminal”.
